The values below come from US20230312651A1, “Cyclic Peptide, Peptide Complex, and Drug Composition Containing Said Cyclic Peptide and/or Said Peptide Complex” (The University of Tokyo, priority 2020, published 2023).

“Also recorded” adds a separate entry of the source. Starred links: 1 amine or outer side, 2 acyl side, 3 side chain; linkers in the order of their positions; H or OH if unused. Positions of bridges follow the written chain, without caps; N, C: chain ends. Non-standard residues stand in square brackets, D forms with d. Chains are numbered I, II in the order given. No end group written: not given here. NH(CH2CH2O)6CH2CO = O=C(COCCOCCOCCOCCOCCOCCN[*:1])[*:2]; Dap = NC[C@H](N)C(=O)O

B1: SEQ ID NO 1 (peptide)
peptide: Ac-YRHNSYEASAFWCGSGSGS
modifications: thioether (positions not given here); not fully specified (residue 1, bridges)
notes: In the selection it stood as a peptide-mRNA/cDNA conjugate joined through a puromycin linker
B2: SEQ ID NO 3 (peptide)
peptide: Ac-YRHSSYEASAFWCGSGSGS
modifications: thioether (positions not given here); not fully specified (residue 1, bridges)
notes: as for B1
B3: SEQ ID NO 4 (peptide)
peptide: Ac-YRHDSYEASAFWCGSGSGS
modifications: thioether (positions not given here); not fully specified (residue 1, bridges)
notes: as for B1
B4: SEQ ID NO 2 (peptide)
peptide: Ac-YRHNSYKASAFWCGSGSGS
modifications: thioether (positions not given here); not fully specified (residue 1, bridges)
notes: as for B1
B5: SEQ ID NO 5 (peptide)
peptide: Ac-YRHNSYEASTFWCGSGSGS
modifications: thioether (positions not given here); not fully specified (residue 1, bridges)
notes: as for B1
B6: SEQ ID NO 6 (peptide)
peptide: Ac-YRHNSYEASAFCCGSGSGS
modifications: thioether (positions not given here); not fully specified (residue 1, bridges)
notes: as for B1
B7: SEQ ID NO 8 (peptide)
peptide: Ac-YLQPKFKFWCGSGSGS
modifications: thioether (positions not given here); not fully specified (residue 1, bridges)
notes: as for B1
B8: SEQ ID NO 11 (peptide)
peptide: Ac-YKYKFWAYIPTNCGSGSGS
modifications: thioether (positions not given here); not fully specified (residue 1, bridges)
notes: as for B1
B9: SEQ ID NO 13 (peptide)
peptide: Ac-YRLHQWINTFRCGSGSGS
modifications: thioether (positions not given here); not fully specified (residue 1, bridges)
notes: as for B1
B10: SEQ ID NO 7 (peptide)
peptide: Ac-YLRPRYKFWCGSGSGS
modifications: thioether (positions not given here); not fully specified (residue 1, bridges)
notes: as for B1
B11: SEQ ID NO 12 (peptide)
peptide: Ac-YRIHPWITTYRCGSGSGS
modifications: thioether (positions not given here); not fully specified (residue 1, bridges)
notes: as for B1
B12: SEQ ID NO 10 (peptide)
peptide: Ac-YRFWQTPRFRLCGSGSGS
modifications: thioether (positions not given here); not fully specified (residue 1, bridges)
notes: as for B1
B13: SEQ ID NO 9 (peptide)
peptide: Ac-YAHEGYKNSAFWCGSGSGS
modifications: thioether (positions not given here); not fully specified (residue 1, bridges)
notes: as for B1

T2 sequence (Q16288 32-429 limits assumed): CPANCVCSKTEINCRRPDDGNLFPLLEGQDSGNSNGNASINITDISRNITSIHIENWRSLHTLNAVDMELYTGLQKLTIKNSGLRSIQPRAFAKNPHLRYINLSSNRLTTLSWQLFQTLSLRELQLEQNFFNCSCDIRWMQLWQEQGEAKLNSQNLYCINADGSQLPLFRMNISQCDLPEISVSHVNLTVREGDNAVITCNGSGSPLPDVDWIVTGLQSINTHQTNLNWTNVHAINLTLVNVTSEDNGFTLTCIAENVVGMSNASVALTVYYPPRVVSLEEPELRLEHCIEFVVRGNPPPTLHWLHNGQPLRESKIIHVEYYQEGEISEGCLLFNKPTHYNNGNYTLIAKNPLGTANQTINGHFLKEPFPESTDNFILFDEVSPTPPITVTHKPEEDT
extracellular domain of hTrkA, sequence (P04629 33-423 limits assumed): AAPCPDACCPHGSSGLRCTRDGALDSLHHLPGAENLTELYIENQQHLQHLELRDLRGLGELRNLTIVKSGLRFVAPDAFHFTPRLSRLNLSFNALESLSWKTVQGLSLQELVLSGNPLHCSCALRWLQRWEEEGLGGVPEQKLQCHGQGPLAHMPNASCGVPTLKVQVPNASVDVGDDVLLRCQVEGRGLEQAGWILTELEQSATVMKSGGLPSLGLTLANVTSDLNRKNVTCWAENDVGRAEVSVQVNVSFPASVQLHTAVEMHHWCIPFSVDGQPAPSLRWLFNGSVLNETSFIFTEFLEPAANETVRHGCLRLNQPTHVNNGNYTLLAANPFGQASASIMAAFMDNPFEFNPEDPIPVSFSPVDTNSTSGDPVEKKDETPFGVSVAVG

For one test, the system named is 40 RTKs (receptor tyrosine kinases). The test is described as follows: Phospho-RTK array evaluation (off-target activity). In kind it is cell-based, mouse. Particulars: ANA-12 100 µM added 30 minutes before DiTrbL3 1 nM. The method, then: Comprehensive study of the phosphorylated tyrosine kinase receptor was conducted using a phospho-RTK array in accordance with the manufacturer’s protocol (Proteome Profiler mouse Phospho-RTK Array Kit, ARY014, R&D Systems). The phosphorylation level was evaluated by pixel density and quantified by Image J Software.
On to `O=C(Nc1ccccc1C(=O)NC1CCCCNC1=O)c1cc2ccccc2s1` (stereo not drawn) [ANA-12, reference compound], for which the “TrkB phosphorylation signal induced by DiTrbL3, RTK array and densitometric analysis” value is “reduction in TrkB phosphorylation signal”.

In another test the test system is Akt. The experiment in a line: Western blot of phosphorylated Akt (S473) in primary hippocampal neurons. Particulars: ANA-12 100 µM added 30 minutes before 1 nM DiTrbL3; p<0.05. The format is cell-based, mouse. The method, then:
(§1) After washing with 0.1 M PBS twice, cells were lysed in a radio-immunoprecipitation assay (RIPA) buffer containing 50 mM Tris-HCI (pH 7.4), 150 mM NaCl, 2 mM EDTA, 1% Nonidet P-40, 0.5% Na-deoxycholate, 0.1% SDS, 50 mM NaF, 0.2 mM Na3VO4, 10 µg/mL aprotinin, 10 µg/mL leupeptin, and 1 mM phenylmethylsulfonyl fluoride on ice for 30 minutes. After ultrasonic treatment and centrifugation at 20,000 ×g for 30 minutes, the supernatant was subjected to SDS-PAGE. Protein amount was quantified using Bicinchoninic Acid Kit (BCA-1, Sigma).
(§2) The cell lysate (protein amount: 20 µg in P-TrkB, 10 µg in TrkB, and 5 µg in Akt and Erk) was separated using 8% polyacrylamide gel and transferred to a polyvinylidene difluoride membrane (Merck Millipore, Massachusetts, USA). […]
(§3) Finally, after the resulting membrane was washed with TBST, an immune-positive bands were detected by a chemiluminescence method using a Luminata Crescendo HPR substrate (Merck Millipore). The relative phosphorylation level of each kinase was calculated as a ratio of phosphorylated kinase/all kinases.
`O=C(Nc1ccccc1C(=O)NC1CCCCNC1=O)c1cc2ccccc2s1` (stereo not drawn) [ANA-12, reference compound]: the “phosphorylation of Akt induced by DiTrbL3” value was “the phosphorylation activity decreased; also recorded: suppressed”.

The target of a further test is extracellular domain of hTrkA (Homo sapiens, UniProt P04629). The test is described as follows: SPR binding kinetics (Biacore T200), hTrkA. The arrangement: the extracellular domain of hTrkA, hTrkC, and hTrkB. As to conditions: Homodimer (peptide complex), 1:1 binding model. The method, then:
(§4) With respect to the binding kinetics (binding affinity (dissociation constant) KD) of the cyclic peptides towards the extracellular domain of hTrkA, hTrkC, and hTrkB (which will hereinafter be called “hTrkA-C proteins”, collectively) immobilized on a sensor chip via a His6-tag, quantitative measurements making use of surface plasmon resonance (SPR) were carried out to evaluate the binding intensity and selectivity of the cyclic peptide to hTrkB, compared with that to hTrkA and hTrkC.
(§5) The binding kinetics of each peptide towards the hTrkA-C proteins were determined using Biacore T200 (GE Healthcare). The buffer used was HBS-P+ (10 mM HEPES, 150 mM NaCl, and 0.05 vol% surfactant P20, pH 7.4) containing 0.1 vol% DMSO and 1 mM b-dodecyl-maltoside. 100 nM hTrkA-C proteins were immobilized on a Ni^2+ treated NTA chip in accordance with the manufacturer’s instructions (baseline response 1000 to 3000 refraction units). Peptides were injected as an analyte at a flow rate of […] and binding kinetics was modelled using a 1:1 binding model.
Consider “I: {CH2CO}-YRHNSYEASAFWCGSGSGS[NH(CH2CH2O)6CH2CO][Dap]-NH2 / II: {CH2CO}-YRHNSYEASAFWCGSGSGS[NH(CH2CH2O)6CH2CO] (amide I:21-II:C; thioether I:N-I:13, II:N-II:13) [DiTrbL1]”, for which the “binding affinity KD, TrkA” value is “N.B”.

In a further test the target is T1, extracellular domain of hTrkB (human, UniProt Q16620 32-430).
T1 construct: extracellular domain; Immobilised on a Ni2+-treated NTA sensor chip through the His6-tag for SPR; fixed on His pulldown Dynabeads at 200 nM for the RaPID selection; also called human TrkB; TrkB extracellular domain; not shown: His6-tag
T1 sequence (Q16620 32-430): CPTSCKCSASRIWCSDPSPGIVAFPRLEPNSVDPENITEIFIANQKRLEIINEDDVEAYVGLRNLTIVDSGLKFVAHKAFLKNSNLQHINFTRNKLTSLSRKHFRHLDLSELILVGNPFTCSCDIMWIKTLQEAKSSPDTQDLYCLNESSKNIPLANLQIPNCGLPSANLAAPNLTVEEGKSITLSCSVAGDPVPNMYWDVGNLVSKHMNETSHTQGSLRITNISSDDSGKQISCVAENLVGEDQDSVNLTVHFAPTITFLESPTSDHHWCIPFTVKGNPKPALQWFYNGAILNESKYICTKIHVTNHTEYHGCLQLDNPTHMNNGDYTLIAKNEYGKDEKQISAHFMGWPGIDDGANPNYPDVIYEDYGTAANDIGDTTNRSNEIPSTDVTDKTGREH
The experiment in a line: RaPID affinity selection, 5 rounds, on beads carrying TrkB extracellular domain; sequencing.
Details: not given
The method, then:
Next, the peptide-mRNA/cDNA conjugate libraries thus obtained were subjected to affinity selection. First, as control selection, the peptide-mRNA/cDNA conjugate libraries were passed three times through His pulldown Dynabeads (Life Technologies) (each passage for 10 minutes under the condition of 4° C.). The above process is called “pre-clearance” or negative selection and is performed to remove undesired binding to beads. […] The process is called “positive selection”.
By heating at 95° C. for 5 minutes, the cDNAs were eluted from the beads and a portion of the eluted cDNAs was evaluated by quantitative PCR using Sybr Green I and thermal cycler (LightCycler (Roche)). The remaining portion of the cDNAs was amplified by PCR and used for the transcription of the mRNA library used for affinity selection in the next round.
One round consisted of preparation of a library, pre-clearance, and positive selection, and the round was performed 5 times. […] The collected cDNAs were amplified by PCR, purified using a column (NucleoSpin (Machery-Nagel)), and sequenced using a high through-put sequencer (MiSeq (Illumina)). Data analysis was performed using a software (CLC Sequence Viewer 7 (Qiagen)).
As for B1, the binding result was “binds”. Same read-out and setting: in the case of B2 it was “binds”. Still for that read-out and setting: in the case of B3 it was “binds”; in that of B4, “binds”.

B5: the binding result is reported as “binds”. Turning to B6, the binding result is on record as “binds”.

For the molecule B7, the binding result is on record as “binds”. As for B8, the binding result is listed as “binds”. In the case of B9, the binding result is listed as “binds”. Regarding B10, the binding result is recorded as “binds”. On to B11, for which the binding result is listed as “binds”.

Regarding B12, the binding result is recorded as “binds”. As for B13, the binding result is “binds”.

A further test has as its target T2, extracellular domain of hTrkC (Homo sapiens, UniProt Q16288).
T2 construct: the extracellular domain of hTrkA, hTrkC, and hTrkB
The test is described as follows: SPR binding kinetics (Biacore T200), hTrkC. Particulars: Homodimer (peptide complex), 1:1 binding model. As to the method: as §4, §5
On the technique in general: Surface plasmon resonance follows binding to a sensor surface in real time, without labels.
For the molecule “I: {CH2CO}-YRHNSYEASAFWCGSGSGS[NH(CH2CH2O)6CH2CO][Dap]-NH2 / II: {CH2CO}-YRHNSYEASAFWCGSGSGS[NH(CH2CH2O)6CH2CO] (amide I:21-II:C; thioether I:N-I:13, II:N-II:13) [DiTrbL1]”, the “binding affinity KD, TrkC” value is “N.B”.

The next test concerns Erk½. The test is described as follows: Western blot of phosphorylated Erk½ in primary hippocampal neurons. Particulars: ANA-12 100 µM added 30 minutes before 1 nM DiTrbL3; p<0.01. In kind it is cell-based, mouse. The method, then:
as §1, §2, §3
For orientation: A western blot detects proteins with antibodies after separation by electrophoresis.
Turning to `O=C(Nc1ccccc1C(=O)NC1CCCCNC1=O)c1cc2ccccc2s1` (stereo not drawn) [ANA-12, reference compound], the “phosphorylation of Erk½ induced by DiTrbL3” value is given as “the phosphorylation activity decreased; also recorded: suppressed”.
